# Reference: patent US11054428B2, “Inhalable nanosensors with volatile reporters and uses thereof” (Massachusetts Institute of Technology, priority 2018, dated 2021)
# Key:
# [1] = target: T1, lung homogenates (neutrophil elastase) (Mus musculus, UniProt Q3UP87); assay: Ex vivo reporter release from nanosensors mixed with infected and healthy lung homogenates; parameters: species or system CD-1 mice; settings: 24 h post-inoculation with P. aeruginosa PAO1 (FIG. 3C)
# T1 construct: from tissue; host or cells: lungs of CD-1 mice, healthy or infected with P. aeruginosa PAO1 (homogenates ex vivo, or lung in vivo)
# T1 sequence (Q3UP87 27-265): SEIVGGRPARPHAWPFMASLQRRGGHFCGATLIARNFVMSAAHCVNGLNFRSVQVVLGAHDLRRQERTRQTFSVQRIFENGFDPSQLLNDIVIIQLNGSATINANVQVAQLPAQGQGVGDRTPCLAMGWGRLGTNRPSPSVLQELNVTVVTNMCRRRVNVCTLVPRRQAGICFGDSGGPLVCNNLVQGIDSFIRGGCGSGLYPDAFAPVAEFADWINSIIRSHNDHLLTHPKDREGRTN
# Procedure: Ultimately, the goal was to administer nanosensors into the lungs of mouse models of bacterial pneumonia to test for measurable reporter levels in the breath. Prior to direct administration into animal infection models, nanosensors were mixed ex vivo with infected and healthy lung homogenates. Bacterial pneumonia was established in CD-1 mice by intratracheal injection of 1.5×10^6 cfu Pseudomonas aeruginosa strain PAO1 (FIG. 3A). At 24 h post-inoculation, the time at which mice were euthanized and lung homogenates were prepared, infected lung homogenates had ˜22-fold greater neutrophil elastase concentration than healthy lung homogenates (FIG. 3B and FIG. 7). […] When mixed with nanosensors, infected lung homogenates triggered 5-fold faster reporter release compared to healthy lung homogenates (FIG. 3C).
# neutrophil elastase (NE) [2] = target: T2, neutrophil elastase (NE) (Mus musculus, UniProt Q3UP87); assay type: in vivo, mice
# T2 construct: from tissue; host or cells: lungs of CD-1 mice, healthy or infected with P. aeruginosa PAO1 (homogenates ex vivo, or lung in vivo)
# T2 sequence (Q3UP87 27-265): T1 sequence (Q3UP87 27-265)
# Procedure: With confirmation that infected lungs trigger greater reporter release and at detectable levels, nanosensors were then tested in acute pneumonia mouse models. […] Infected-7 and Infected-12, which have high initial reporter levels, have nanosensors predominantly in the airway. […] Reporters released from the sensor in the airways are expected to be expired in the breath more rapidly than free reporters deeper in the lung as the tidal volume is only a fraction of the total volume of the lung. […] In fact, infected breath samples at 16 min (18 min post-injection) have 3-fold higher mean reporter levels than breath samples from healthy controls (p=0.0035) (FIG. 4E and FIG. 6, right).
# Therefore, subsequent studies focused on nanosensors with pentafluoropropylamine or heptafluoropropylamine reporters. […] Breath signal was reduced by ˜70% due to inhibitor administration, confirming the role of NE in releasing reporters in vivo to generate breath signal (FIG. 12).
# neutrophil elastase (NE) [3] = target: T2, neutrophil elastase (NE); assay: Mechanistic study: NE inhibitor given before nanosensor in infected mice, breath signal; assay type: in vivo; settings: 5 mg/kg intratracheal, 15 min before nanosensor, infected mice (FIG. 12)
Compound,"reporter release rate, infected vs healthy lung homogenates [1]","breath signal, infected vs healthy mice (neutrophil elastase (NE) [2]; 10, 20 and 30 min after administration, low and high doses (FIGS. 10A-10B))",dose dependence of breath signal (neutrophil elastase (NE) [2]; 10 vs 100 μM doses),"AUROC for identifying infected mice by breath signal (neutrophil elastase (NE) [2]; 10 min, low dose (10 μM), p=0.0062)","mean reporter levels in breath, infected vs healthy controls (neutrophil elastase (NE) [2]; 16 min timepoint (18 min post-injection), p=0.0035)","reporter levels in breath, infected vs healthy (2-way ANOVA) (neutrophil elastase (NE) [2]; 20 min breath collection, p<0.05)",duration of SNR >1.0 relative to unattached peptide substrate (neutrophil elastase (NE) [2]; FIG. 11B),"reporter levels in breath, infected mice vs healthy controls after convergence (neutrophil elastase (NE) [2]; after first 14 min of breath collection (FIG. 4B))",time to disease-distinguishing reporter signal in the breath (neutrophil elastase (NE) [2]; after inhalation),earliest time of perfect distinction between mice with and without bacterial pneumonia (neutrophil elastase (NE) [2]; after nanosensor inhalation),breath signal vs peptide substrate unattached to scaffold (neutrophil elastase (NE) [2]; infected mice (FIG. 11A)),timepoint of maximum effect size of reporter levels (neutrophil elastase (NE) [2]; infected vs healthy (FIG. 4D)),"detectability of reporter levels in breath (neutrophil elastase (NE) [2]; intratracheal instillation, 10 μM equivalent peptide dose)",reduction of breath signal (neutrophil elastase (NE) [3])
"nanosensor: NE peptide substrate Nle(O-Bzl)-Met(O)2-Oic-Abu with C-terminal PFC reporter, conjugated via CKKK-PEG4 linker to 40 kDa 8-arm PEG; pentafluoropropylamine reporter in vivo (CKKKXXXX; not fully specified; non-natural residues)",5 fold,significantly higher,dose-dependent,1.0,3 fold,significantly greater,~3 ×,~3 fold,≤ 20 min,≥ 12 min,higher breath signal than peptide substrates,16 min,detectable,
CC(C)(C)C(=O)Oc1ccc(S(=O)(=O)Nc2ccccc2C(=O)NCC(=O)O)cc1 [sivelestat],,,,,,,,,,,,,,~70%
